Measurements from patent US20250179589A1, “SYNTHETIC LETHALITY AND THE TREATMENT OF CANCER” (PACYLEX PHARMACEUTICALS INC., priority 2012, published 2025).

How the values were obtained:
[1] = biological target: myristoylatable decapeptide corresponding to the N-terminal sequence of ct-Bid; assay: cell-based or functional assay
Jurkat T cells = assay: Effect of HMA on the induction of apoptosis, immunoblot; assay type: cell-based, human
Description: HMA was saponified and conjugated to bovine serum albumin (BSA) prior to addition to cells to facilitate its cellular uptake as described previously (Yap et al., 2010). Briefly, HMA was incubated with a 20% molar excess of potassium hydroxide (KOH) at 65° C. for 15 min. Subsequently, a 20× solution was made by dissolving the KOH saponified HMA in serum-free RPMI media containing 20% fatty acid-free BSA at 37° C., followed by an additional 15 min incubation at 37° C. Since sodium myristate was used as a control, it was also incubated in serum-free RPMI media containing 20% fatty acid-free BSA at 37° C. prior to addition to cells. Subsequently, Jurkat T cells (1×10^7 cells) were incubated with either 1 mM HMA or 1 mM sodium myristate conjugated to fatty-acid free BSA (final concentration in cell culture 1%) for 1 h at 37° C. in RPMI media (without FBS, supplements or antibiotics). After incubation, apoptosis was induced using anti-Fas (150 ng/mL) or STS (2.5 μM) with cycloheximide (5 μg/mL) or vehicle alone (DMSO). Samples were collected every 2 h for an 8 h period, washed with cold PBS and lysed with 0.3 mL of 1% sodium dodecyl sulfate (SDS)-radio-immuno-precipitation assay (RIPA) buffer and subjected to 2 rounds of sonication for 15 seconds at an output of 5.5-6.5 on a Branson Sonifier and placed on ice for 2 min in between each cycle. […]

His-NMT1 (recombinant …) = biological target: T1, His-NMT1 (recombinant hexahistidine-tagged full-length human N-myristoyltransferase 1), P30419
T1 chain: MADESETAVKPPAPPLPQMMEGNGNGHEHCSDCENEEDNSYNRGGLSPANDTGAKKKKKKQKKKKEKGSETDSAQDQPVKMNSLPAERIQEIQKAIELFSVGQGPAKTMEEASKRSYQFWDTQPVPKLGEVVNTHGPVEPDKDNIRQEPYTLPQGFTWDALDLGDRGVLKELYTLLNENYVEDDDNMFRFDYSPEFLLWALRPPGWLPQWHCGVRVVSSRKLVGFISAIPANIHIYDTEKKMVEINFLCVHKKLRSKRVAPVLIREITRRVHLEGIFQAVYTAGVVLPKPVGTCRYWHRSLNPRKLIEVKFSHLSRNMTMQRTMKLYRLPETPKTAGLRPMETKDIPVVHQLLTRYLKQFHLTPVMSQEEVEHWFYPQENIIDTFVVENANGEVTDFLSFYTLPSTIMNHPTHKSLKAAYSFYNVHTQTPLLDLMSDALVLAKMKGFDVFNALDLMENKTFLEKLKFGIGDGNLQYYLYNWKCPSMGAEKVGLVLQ

[2] = biological target: T2, myristoylatable decapeptide corresponding to the N-terminal sequence of ct-Bid
T2 chain: GNRSSHSRLG

His-NMT2 (recombinant …) = biological target: T3, His-NMT2 (recombinant hexahistidine-tagged full-length human N-myristoyltransferase 2), O60551
T3 chain: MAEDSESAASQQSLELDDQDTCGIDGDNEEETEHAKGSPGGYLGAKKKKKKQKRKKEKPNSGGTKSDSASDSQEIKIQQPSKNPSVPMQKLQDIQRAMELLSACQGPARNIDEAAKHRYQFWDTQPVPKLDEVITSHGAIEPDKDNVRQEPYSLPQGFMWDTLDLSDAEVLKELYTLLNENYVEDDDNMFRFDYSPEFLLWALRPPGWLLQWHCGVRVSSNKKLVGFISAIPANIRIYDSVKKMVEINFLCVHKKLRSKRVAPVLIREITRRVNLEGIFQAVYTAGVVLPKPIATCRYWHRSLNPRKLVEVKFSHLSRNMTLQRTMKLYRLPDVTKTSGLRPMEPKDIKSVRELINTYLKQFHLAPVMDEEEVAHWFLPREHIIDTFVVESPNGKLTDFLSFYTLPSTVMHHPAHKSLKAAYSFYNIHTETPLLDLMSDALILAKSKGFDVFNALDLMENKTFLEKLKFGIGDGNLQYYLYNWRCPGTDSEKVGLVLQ

V5-NMT1 (N-terminally V5-tagged NMT1) (from UniProt P30419 1-496) (enzyme)
NMT activity in lysates of transfected COS-7 cells relative to cells expressing V5-NMT2 (peptide myristoylation assay) [1]: 5 fold

CCCCCCCCCCCCC(O)C(=O)O (stereo not shown) [HMA, 2-hydroxymyristic acid]
time by which cleavage of PARP-1 occurred sooner than with 1 mM sodium myristate (Jurkat T cells; 1 mM HMA and anti-Fas): 2 h | PARP-1 and PAK2 cleavage vs STS and 1 mM sodium myristate (Jurkat T cells; HMA/STS, 2 h post induction): more PARP-1 and PAK2 cleavage

B1: recombinant human active caspase-8 (protein)
chain: SESQTLDKVYQMKSKPRGYCLIINNHNFAKAREKVPKLHSIRDRNGTHLDAGALTTTFEELHFEIKPHDDCTVEQIYEILKIYQLMDHSNMDCFICCILSHGDKGIIYGTDGQEAPIYELTSQFTGLKCPSLAGKPKVFFIQACQGDNYQKGIPVETDSEEQPYLEMDLSSPQTRYIPDEADFLLGMATVNNCVSYRNPAEGTWYIQSLCQSLRERCPRGDDILTILTEVNYEVSNKDDKKNMGKQMPQPTFTLRKKLVFPSD
in vitro NMT cleavage assay (Coomassie stained gel) (His-NMT1 (recombinant …)): Reconstitution of NMT1 cleavage by caspases-8 and -3, and, NMT2 cleavage by caspase-3 in vitro

B2: His-68NMT2 (His-tagged caspase-cleaved, truncated human NMT2) (protein)
chain: SASDSQEIKIQQPSKNPSVPMQKLQDIQRAMELLSACQGPARNIDEAAKHRYQFWDTQPVPKLDEVITSHGAIEPDKDNVRQEPYSLPQGFMWDTLDLSDAEVLKELYTLLNENYVEDDDNMFRFDYSPEFLLWALRPPGWLLQWHCGVRVSSNKKLVGFISAIPANIRIYDSVKKMVEINFLCVHKKLRSKRVAPVLIREITRRVNLEGIFQAVYTAGVVLPKPIATCRYWHRSLNPRKLVEVKFSHLSRNMTLQRTMKLYRLPDVTKTSGLRPMEPKDIKSVRELINTYLKQFHLAPVMDEEEVAHWFLPREHIIDTFVVESPNGKLTDFLSFYTLPSTVMHHPAHKSLKAAYSFYNIHTETPLLDLMSDALILAKSKGFDVFNALDLMENKTFLEKLKFGIGDGNLQYYLYNWRCPGTDSEKVGLVLQ
NMT activity (filter-based peptide myristoylation assay) [2]: both full-length and caspase cleaved truncated NMT1 and NMT2 were catalytically active when compared to the control | NMT activity relative to full-length NMT2 (filter-based peptide myristoylation assay) [2]: ˜4-fold (His-68NMT2) more activity when compared to full-length NMT2

B3: His-NMT1 (recombinant hexahistidine-tagged full-length human N-myristoyltransferase 1) (protein)
chain: T1 chain
NMT activity (filter-based peptide myristoylation assay) [2]: both full-length and caspase cleaved truncated NMT1 and NMT2 were catalytically active when compared to the control

B4: His-73NMT1 (His-tagged caspase-cleaved, truncated human NMT1) (protein)
chain: SAQDQPVKMNSLPAERIQEIQKAIELFSVGQGPAKTMEEASKRSYQFWDTQPVPKLGEVVNTHGPVEPDKDNIRQEPYTLPQGFTWDALDLGDRGVLKELYTLLNENYVEDDDNMFRFDYSPEFLLWALRPPGWLPQWHCGVRVVSSRKLVGFISAIPANIHIYDTEKKMVEINFLCVHKKLRSKRVAPVLIREITRRVHLEGIFQAVYTAGVVLPKPVGTCRYWHRSLNPRKLIEVKFSHLSRNMTMQRTMKLYRLPETPKTAGLRPMETKDIPVVHQLLTRYLKQFHLTPVMSQEEVEHWFYPQENIIDTFVVENANGEVTDFLSFYTLPSTIMNHPTHKSLKAAYSFYNVHTQTPLLDLMSDALVLAKMKGFDVFNALDLMENKTFLEKLKFGIGDGNLQYYLYNWKCPSMGAEKVGLVLQ
NMT activity (filter-based peptide myristoylation assay) [2]: both full-length and caspase cleaved truncated NMT1 and NMT2 were catalytically active when compared to the control

B5: His-26NMT2 (His-tagged caspase-cleaved, truncated human NMT2) (protein)
chain: GDNEEETEHAKGSPGGYLGAKKKKKKQKRKKEKPNSGGTKSDSASDSQEIKIQQPSKNPSVPMQKLQDIQRAMELLSACQGPARNIDEAAKHRYQFWDTQPVPKLDEVITSHGAIEPDKDNVRQEPYSLPQGFMWDTLDLSDAEVLKELYTLLNENYVEDDDNMFRFDYSPEFLLWALRPPGWLLQWHCGVRVSSNKKLVGFISAIPANIRIYDSVKKMVEINFLCVHKKLRSKRVAPVLIREITRRVNLEGIFQAVYTAGVVLPKPIATCRYWHRSLNPRKLVEVKFSHLSRNMTLQRTMKLYRLPDVTKTSGLRPMEPKDIKSVRELINTYLKQFHLAPVMDEEEVAHWFLPREHIIDTFVVESPNGKLTDFLSFYTLPSTVMHHPAHKSLKAAYSFYNIHTETPLLDLMSDALILAKSKGFDVFNALDLMENKTFLEKLKFGIGDGNLQYYLYNWRCPGTDSEKVGLVLQ
NMT activity (filter-based peptide myristoylation assay) [2]: both full-length and caspase cleaved truncated NMT1 and NMT2 were catalytically active when compared to the control | NMT activity relative to full-length NMT2 (filter-based peptide myristoylation assay) [2]: ˜3-fold (His-26NMT2) ... more activity when compared to full-length NMT2

B6: recombinant human active caspase-3 (protein)
chain: SGISLDNSYKMDYPEMGLCIIINNKNFHKSTGMTSRSGTDVDAANLRETFRNLKYEVRNKNDLTREEIVELMRDVSKEDHSKRSSFVCVLLSHGEEGIIFGTNGPVDLKKITNFFRGDRCRSLTGKPKLFIIQACRGTELDCGIETDSGVDDDMACHKIPVEADFLYAYSTAPGYYSWRNSKDGSWFIQSLCAMLKQYADKLEFMHILTRVNRKVATEFESFSFDATFHAKKQIPCIVSMLTKELYFYH
in vitro NMT cleavage assay (Coomassie stained gel) (His-NMT2 (recombinant …)): Reconstitution of NMT1 cleavage by caspases-8 and -3, and, NMT2 cleavage by caspase-3 in vitro | in vitro NMT cleavage assay (Coomassie stained gel) (His-NMT1 (recombinant …)): Reconstitution of NMT1 cleavage by caspases-8 and -3, and, NMT2 cleavage by caspase-3 in vitro

B7: His-NMT2 (recombinant hexahistidine-tagged full-length human N-myristoyltransferase 2) (protein)
chain: T3 chain
NMT activity (filter-based peptide myristoylation assay) [2]: both full-length and caspase cleaved truncated NMT1 and NMT2 were catalytically active when compared to the control
